These molecules were tested on HAB1 (assay: Yeast two hybrid of pBD-PYR1 site saturation mutants with pACT-HAB1 on 10 μM ABA, β-galactosidase staining). Conditions: S. cerevisiae Y190, 10 μM ABA; dead = lack of visible staining in comparison to wild type control.
Type: cell-based, Arabidopsis
Set-up: key: x: Mutations in PYR1 that disrupt ABA-induced binding to PYR1 to HAB1
Text: To systematically identify mutations in PYR1 that disrupt its binding to HAB1, we utilized a collection of saturating mutations that contain all possible single amino acid substitutions in 24 conserved interface residues involved in binding HAB1, which was previously constructed for the purpose of engineering constitutively active ABA receptor variants (Mosquna et al., 2011). The interface residues previously mutagenized in this collection are the following: H60, F61, I62, K63, I84, S85, G86, L87, P88, A89, H115, R116, L117, P148, G150, N151, D154, D155, T156, M158, F159, T162, L166, K170. This set was made by mutagenizing a pBD-PYR1 template that encodes a GAL4-DNA binding domain fusion to PYR1, which can be used to assess receptor-HAB1 binding in S. cerevisiae strains co-transformed with pACT-HAB1, which expresses a GAL4 activation domain fusion to HAB1. Mutant pBD-PYR1 clones from the collection are maintained in S. cerevisiae strain Y190 co-transformed with pACT-HAB1. The test strains were spotted onto agar plates containing synthetic dextrose dropout media lacking leucine and tryptophan [SD (-Leu, -Trp)] medium supplemented with 10 μM ABA. After incubating the test plates at 30° C. for two days, colonies were chloroform lysed and stained to reveal […] expression levels and “dead” mutants were defined by lack of visible staining in comparison to a wild type control. This effort defined 237 mutations that disrupt ABA-induced binding of PYR1 to HAB1 (Table 1). Premade yeast drop out supplements (Clontech) were utilized in this and other examples for media preparation, amino acids and other standard chemicals were purchased from Sigma-Aldrich (USA). The naturally occurring (+)-ABA isomer was used in all experiments and purchased from Biosynth Ag (Switzerland).

Mutations in PYR1 that disrupt ABA-induced binding to PYR1 to HAB1 | Molecule
x | G86A: PYR1 mutant (protein, UniProt O49686 1-191, looked up, variant G86A) Abscisic acid receptor PYR1: MPSELTPEERSELKNSIAEFHTYQLDPGSCSSLHAQRIHAPPELVWSIVRRFDKPQTYKHFIKSCSVEQNFEMRVGCTRDVIVISALPANTSTERLDILDDERRVTGFSIIGGEHRLTNYKSVTTVHRFEKENRIWTVVLESYVVDMPEGNSEDDTRMFADTVVKLNLQKLATVAEAMARNSGDGSGSQVT
x | G86F: PYR1 mutant (protein, UniProt O49686 1-191, looked up, variant G86F) Abscisic acid receptor PYR1: MPSELTPEERSELKNSIAEFHTYQLDPGSCSSLHAQRIHAPPELVWSIVRRFDKPQTYKHFIKSCSVEQNFEMRVGCTRDVIVISFLPANTSTERLDILDDERRVTGFSIIGGEHRLTNYKSVTTVHRFEKENRIWTVVLESYVVDMPEGNSEDDTRMFADTVVKLNLQKLATVAEAMARNSGDGSGSQVT
x | G86R: PYR1 mutant (protein, UniProt O49686 1-191, looked up, variant G86R) Abscisic acid receptor PYR1: MPSELTPEERSELKNSIAEFHTYQLDPGSCSSLHAQRIHAPPELVWSIVRRFDKPQTYKHFIKSCSVEQNFEMRVGCTRDVIVISRLPANTSTERLDILDDERRVTGFSIIGGEHRLTNYKSVTTVHRFEKENRIWTVVLESYVVDMPEGNSEDDTRMFADTVVKLNLQKLATVAEAMARNSGDGSGSQVT
x | G86P: PYR1 mutant (protein, UniProt O49686 1-191, looked up, variant G86P) Abscisic acid receptor PYR1: MPSELTPEERSELKNSIAEFHTYQLDPGSCSSLHAQRIHAPPELVWSIVRRFDKPQTYKHFIKSCSVEQNFEMRVGCTRDVIVISPLPANTSTERLDILDDERRVTGFSIIGGEHRLTNYKSVTTVHRFEKENRIWTVVLESYVVDMPEGNSEDDTRMFADTVVKLNLQKLATVAEAMARNSGDGSGSQVT
x | G86Y: PYR1 mutant (protein, UniProt O49686 1-191, looked up, variant G86Y) Abscisic acid receptor PYR1: MPSELTPEERSELKNSIAEFHTYQLDPGSCSSLHAQRIHAPPELVWSIVRRFDKPQTYKHFIKSCSVEQNFEMRVGCTRDVIVISYLPANTSTERLDILDDERRVTGFSIIGGEHRLTNYKSVTTVHRFEKENRIWTVVLESYVVDMPEGNSEDDTRMFADTVVKLNLQKLATVAEAMARNSGDGSGSQVT
x | G86N: PYR1 mutant (protein, UniProt O49686 1-191, looked up, variant G86N) Abscisic acid receptor PYR1: MPSELTPEERSELKNSIAEFHTYQLDPGSCSSLHAQRIHAPPELVWSIVRRFDKPQTYKHFIKSCSVEQNFEMRVGCTRDVIVISNLPANTSTERLDILDDERRVTGFSIIGGEHRLTNYKSVTTVHRFEKENRIWTVVLESYVVDMPEGNSEDDTRMFADTVVKLNLQKLATVAEAMARNSGDGSGSQVT
x | G86C: PYR1 mutant (protein, UniProt O49686 1-191, looked up, variant G86C) Abscisic acid receptor PYR1: MPSELTPEERSELKNSIAEFHTYQLDPGSCSSLHAQRIHAPPELVWSIVRRFDKPQTYKHFIKSCSVEQNFEMRVGCTRDVIVISCLPANTSTERLDILDDERRVTGFSIIGGEHRLTNYKSVTTVHRFEKENRIWTVVLESYVVDMPEGNSEDDTRMFADTVVKLNLQKLATVAEAMARNSGDGSGSQVT
x | G86T: PYR1 mutant (protein, UniProt O49686 1-191, looked up, variant G86T) Abscisic acid receptor PYR1: MPSELTPEERSELKNSIAEFHTYQLDPGSCSSLHAQRIHAPPELVWSIVRRFDKPQTYKHFIKSCSVEQNFEMRVGCTRDVIVISTLPANTSTERLDILDDERRVTGFSIIGGEHRLTNYKSVTTVHRFEKENRIWTVVLESYVVDMPEGNSEDDTRMFADTVVKLNLQKLATVAEAMARNSGDGSGSQVT
x | G86L: PYR1 mutant (protein, UniProt O49686 1-191, looked up, variant G86L) Abscisic acid receptor PYR1: MPSELTPEERSELKNSIAEFHTYQLDPGSCSSLHAQRIHAPPELVWSIVRRFDKPQTYKHFIKSCSVEQNFEMRVGCTRDVIVISLLPANTSTERLDILDDERRVTGFSIIGGEHRLTNYKSVTTVHRFEKENRIWTVVLESYVVDMPEGNSEDDTRMFADTVVKLNLQKLATVAEAMARNSGDGSGSQVT
x | G86W: PYR1 mutant (protein, UniProt O49686 1-191, looked up, variant G86W) Abscisic acid receptor PYR1: MPSELTPEERSELKNSIAEFHTYQLDPGSCSSLHAQRIHAPPELVWSIVRRFDKPQTYKHFIKSCSVEQNFEMRVGCTRDVIVISWLPANTSTERLDILDDERRVTGFSIIGGEHRLTNYKSVTTVHRFEKENRIWTVVLESYVVDMPEGNSEDDTRMFADTVVKLNLQKLATVAEAMARNSGDGSGSQVT
x | G86E: PYR1 mutant (protein, UniProt O49686 1-191, looked up, variant G86E) Abscisic acid receptor PYR1: MPSELTPEERSELKNSIAEFHTYQLDPGSCSSLHAQRIHAPPELVWSIVRRFDKPQTYKHFIKSCSVEQNFEMRVGCTRDVIVISELPANTSTERLDILDDERRVTGFSIIGGEHRLTNYKSVTTVHRFEKENRIWTVVLESYVVDMPEGNSEDDTRMFADTVVKLNLQKLATVAEAMARNSGDGSGSQVT
x | G86H: PYR1 mutant (protein, UniProt O49686 1-191, looked up, variant G86H) Abscisic acid receptor PYR1: MPSELTPEERSELKNSIAEFHTYQLDPGSCSSLHAQRIHAPPELVWSIVRRFDKPQTYKHFIKSCSVEQNFEMRVGCTRDVIVISHLPANTSTERLDILDDERRVTGFSIIGGEHRLTNYKSVTTVHRFEKENRIWTVVLESYVVDMPEGNSEDDTRMFADTVVKLNLQKLATVAEAMARNSGDGSGSQVT
x | G86M: PYR1 mutant (protein, UniProt O49686 1-191, looked up, variant G86M) Abscisic acid receptor PYR1: MPSELTPEERSELKNSIAEFHTYQLDPGSCSSLHAQRIHAPPELVWSIVRRFDKPQTYKHFIKSCSVEQNFEMRVGCTRDVIVISMLPANTSTERLDILDDERRVTGFSIIGGEHRLTNYKSVTTVHRFEKENRIWTVVLESYVVDMPEGNSEDDTRMFADTVVKLNLQKLATVAEAMARNSGDGSGSQVT
x | G86D: PYR1 mutant (protein, UniProt O49686 1-191, looked up, variant G86D) Abscisic acid receptor PYR1: MPSELTPEERSELKNSIAEFHTYQLDPGSCSSLHAQRIHAPPELVWSIVRRFDKPQTYKHFIKSCSVEQNFEMRVGCTRDVIVISDLPANTSTERLDILDDERRVTGFSIIGGEHRLTNYKSVTTVHRFEKENRIWTVVLESYVVDMPEGNSEDDTRMFADTVVKLNLQKLATVAEAMARNSGDGSGSQVT
x | G86V: PYR1 mutant (protein, UniProt O49686 1-191, looked up, variant G86V) Abscisic acid receptor PYR1: MPSELTPEERSELKNSIAEFHTYQLDPGSCSSLHAQRIHAPPELVWSIVRRFDKPQTYKHFIKSCSVEQNFEMRVGCTRDVIVISVLPANTSTERLDILDDERRVTGFSIIGGEHRLTNYKSVTTVHRFEKENRIWTVVLESYVVDMPEGNSEDDTRMFADTVVKLNLQKLATVAEAMARNSGDGSGSQVT
x | G86S: PYR1 mutant (protein, UniProt O49686 1-191, looked up, variant G86S) Abscisic acid receptor PYR1: MPSELTPEERSELKNSIAEFHTYQLDPGSCSSLHAQRIHAPPELVWSIVRRFDKPQTYKHFIKSCSVEQNFEMRVGCTRDVIVISSLPANTSTERLDILDDERRVTGFSIIGGEHRLTNYKSVTTVHRFEKENRIWTVVLESYVVDMPEGNSEDDTRMFADTVVKLNLQKLATVAEAMARNSGDGSGSQVT
x | G86I: PYR1 mutant (protein, UniProt O49686 1-191, looked up, variant G86I) Abscisic acid receptor PYR1: MPSELTPEERSELKNSIAEFHTYQLDPGSCSSLHAQRIHAPPELVWSIVRRFDKPQTYKHFIKSCSVEQNFEMRVGCTRDVIVISILPANTSTERLDILDDERRVTGFSIIGGEHRLTNYKSVTTVHRFEKENRIWTVVLESYVVDMPEGNSEDDTRMFADTVVKLNLQKLATVAEAMARNSGDGSGSQVT
x | G86Q: PYR1 mutant (protein, UniProt O49686 1-191, looked up, variant G86Q) Abscisic acid receptor PYR1: MPSELTPEERSELKNSIAEFHTYQLDPGSCSSLHAQRIHAPPELVWSIVRRFDKPQTYKHFIKSCSVEQNFEMRVGCTRDVIVISQLPANTSTERLDILDDERRVTGFSIIGGEHRLTNYKSVTTVHRFEKENRIWTVVLESYVVDMPEGNSEDDTRMFADTVVKLNLQKLATVAEAMARNSGDGSGSQVT
x | G86K: PYR1 mutant (protein, UniProt O49686 1-191, looked up, variant G86K) Abscisic acid receptor PYR1: MPSELTPEERSELKNSIAEFHTYQLDPGSCSSLHAQRIHAPPELVWSIVRRFDKPQTYKHFIKSCSVEQNFEMRVGCTRDVIVISKLPANTSTERLDILDDERRVTGFSIIGGEHRLTNYKSVTTVHRFEKENRIWTVVLESYVVDMPEGNSEDDTRMFADTVVKLNLQKLATVAEAMARNSGDGSGSQVT
